Results on 20 variants are retold here after FireProtDB (doi:10.1002/prot.340220405).

The chains are these.
B1: Chemotaxis protein CheY, P0AE67 (parent)
chain: MADKELKFLVVDDFSTMRRIVRNLLKELGFNNVEEAEDGVDALNKLQAGGYGFVISDWNMPNMDGLELLKTIRADGAMSALPVLMVTAEAKKENIIAAAQAGASGYVVKPFTAATLEEKLNKIFEKLGM

In the series the parent is B1. Conditions: Escherichia coli (strain K12); pH 8; 25 °C; Urea; CD; Na-PIPES 50 mM; reversible: yes; structure 1CEY; whole UniProt chain shown.

MADKELKFLVVDDFSTMRRIVRNLLKELGFNNVEEAEDGVDALNKLQAGGYGFVISDWNMPNMDGLELLKTIRADGGMSALPVLMVTAEAKKENIIAAAQAGASGYVVKPFTAATLEEKLNKIFEKLGM: the “ddG of mutation (higher = less stable)” value turned out to be 0.3 kcal/mol, the denaturant m value was 1.56 kcal/mol/M, the “denaturant midpoint (higher = more stable)” value (shortened to “denaturant midpoint”) is 3.32 M and the unfolding free energy was found to be 5.3 kcal/mol.

With MADKELKFLVVDDFSTMRRIVRNLLKELGFNNVEEAEDGVDALNKLQAGGYGFVISDWNMPNMDGLELLKTIRADGAMSALPVLMVTAEAKKENIIAAAQAGASGYVVKPFTAGTLEEKLNKIFEKLGM, the “ddG of mutation (higher = less stable)” value was determined as 0.5 kcal/mol, the denaturant m value turned out to be 1.6 kcal/mol/M, the “denaturant midpoint” value turned out to be 3.2 M and the unfolding free energy was determined as 5.1 kcal/mol.

As to MADKELKFLVVDDNSTMRRIVRNLLKELGFNNVEEAEDGVDGLNKLQAGGYGFVISDWNMPNMDGLELLKTIRADGAMSALPVLMVTAEAKKENIIAAAQAGASGYVVKPFTAATLEEKLNKIFEKLGM, the “ddG of mutation (higher = less stable)” value was -0.6 kcal/mol, the denaturant m value came to 1.73 kcal/mol/M, the “denaturant midpoint” value worked out at 3.58 M and the unfolding free energy was found to be 6.2 kcal/mol.

Turning to MADKELKFLVVDDNSTMRRIVRNLLKELGFNNVEEAEDGVDALNKLQAGGYGFVISDWNMPNMDGLELLKTIRADAAMSALPVLMVTAEAKKENIIAAAQAGASGYVVKPFTAATLEEKLNKIFEKLGM, the “ddG of mutation (higher = less stable)” value is -3.4 kcal/mol, the denaturant m value worked out at 1.77 kcal/mol/M, the “denaturant midpoint” value amounted to 5.08 M and the unfolding free energy worked out at 9 kcal/mol.

Regarding MADKELKFLVVDDFSTMRRIVRNLLKELGFNNVEEAEDGVDALNKLQAGGYGFVISDWNMPNMDGLELLKTIRADGAMSALPVLMVTAEAKKENIIAAGQAGASGYVVKPFTAATLEEKLNKIFEKLGM, the “ddG of mutation (higher = less stable)” value was determined as 0.5 kcal/mol, the denaturant m value was found to be 1.58 kcal/mol/M, the “denaturant midpoint” value was 3.23 M and the unfolding free energy amounted to 5.1 kcal/mol.

On to MADKELKFLVVDDNSTMRRIVRNLLKELGFNNVEEAEDGVDALNKLQAGGYGFVISDWNMPNMDGLELLKTIRADGAMSALPVLMVTAEAKKENIIAGAQAGASGYVVKPFTAATLEEKLNKIFEKLGM, for which the “ddG of mutation (higher = less stable)” value is -1.6 kcal/mol, the denaturant m value is 1.76 kcal/mol/M, the “denaturant midpoint” value stood at 4.09 M and the unfolding free energy came to 7.2 kcal/mol.

Take MADKELKFLVVDDNSTMRRIVRNLLKELGFNNVEEAEDGVDALNKLQAGGYGFVISDWNMPNMGGLELLKTIRADGAMSALPVLMVTAEAKKENIIAAAQAGASGYVVKPFTAATLEEKLNKIFEKLGM: the “ddG of mutation (higher = less stable)” value is -2.6 kcal/mol, the denaturant m value came to 1.72 kcal/mol/M, the “denaturant midpoint” value turned out to be 4.77 M and the unfolding free energy was determined as 8.2 kcal/mol.

Consider MADKELKFLVVDDNSTMRRIVRNLLKELGFNNVEEAEDGVDALNKLQAGGYGFVISDWNMPNMDGLELLKTIRADGAMSALPVLMVTAEAKKENIIAAAQAGGSGYVVKPFTAATLEEKLNKIFEKLGM, for which the “ddG of mutation (higher = less stable)” value was -1.2 kcal/mol, the denaturant m value was determined as 1.75 kcal/mol/M, the “denaturant midpoint” value turned out to be 3.89 M and the unfolding free energy came out at 6.8 kcal/mol.

Turning to MADKELKFLVVDDNSTMRRIVRNLLKELGFNNVEEAEDGVDALNKLQAGGYGFVISDWNMPNMAGLELLKTIRADGAMSALPVLMVTAEAKKENIIAAAQAGASGYVVKPFTAATLEEKLNKIFEKLGM, the “ddG of mutation (higher = less stable)” value was -1.7 kcal/mol, the denaturant m value was 1.69 kcal/mol/M, the “denaturant midpoint” value stood at 4.32 M and the unfolding free energy was 7.3 kcal/mol.

As to MADKELKFLVVDDFSTMRRIVRNLLKELGFNNVEEAEDGVDALNKLQAGGYGFVISDWNMPNMDGLELLKTIRGDGAMSALPVLMVTAEAKKENIIAAAQAGASGYVVKPFTAATLEEKLNKIFEKLGM, the “ddG of mutation (higher = less stable)” value is 0.3 kcal/mol, the denaturant m value is 1.6 kcal/mol/M, the “denaturant midpoint” value came to 3.32 M and the unfolding free energy stood at 5.3 kcal/mol.

As for MADKELKFLVVDDFSTMRRIVRNLLKELGFNNVEEAEDGVDALNKLQAGGYGFVISDWNMPNMDGLELLKTIRADGAMSGLPVLMVTAEAKKENIIAAAQAGASGYVVKPFTAATLEEKLNKIFEKLGM, the “ddG of mutation (higher = less stable)” value is -0.6 kcal/mol, the denaturant m value turned out to be 1.68 kcal/mol/M, the “denaturant midpoint” value is 3.65 M and the unfolding free energy is 6.2 kcal/mol.

Take MADKELKFLVVDDNSTMRRIVRNLLKELGFNNVEEAEDGVDALNKLQAGGYGFVISDWNMPNMDGLELLKTIRADGAMSALPVLMVTAEAAKENIIAAAQAGASGYVVKPFTAATLEEKLNKIFEKLGM: the “ddG of mutation (higher = less stable)” value was -3.3 kcal/mol, the denaturant m value was 1.86 kcal/mol/M, the “denaturant midpoint” value was 4.8 M and the unfolding free energy is 8.9 kcal/mol.

Regarding MADKELKFLVVDDNSTMRRIVRNLLKELGFNNVEEAEGGVDALNKLQAGGYGFVISDWNMPNMDGLELLKTIRADGAMSALPVLMVTAEAKKENIIAAAQAGASGYVVKPFTAATLEEKLNKIFEKLGM, the “ddG of mutation (higher = less stable)” value is -1.9 kcal/mol, the denaturant m value was 1.81 kcal/mol/M, the “denaturant midpoint” value was determined as 4.14 M and the unfolding free energy was found to be 7.5 kcal/mol.

For MADKELKFLVVDDNSTMRRIVRNLLKELGFNNVEEAEDGVDALNKLQAGGYGFVISDWNMPNMDGLELLKTIRADGAMSALPVLMVTAEAKKENIIGAAQAGASGYVVKPFTAATLEEKLNKIFEKLGM, the “ddG of mutation (higher = less stable)” value is -1.5 kcal/mol, the denaturant m value was 1.77 kcal/mol/M, the “denaturant midpoint” value came out at 4 M and the unfolding free energy is 7.1 kcal/mol.

As for MADKELKFLVVDDNSTMRRIVRNLLKELGFNNVEEGEDGVDALNKLQAGGYGFVISDWNMPNMDGLELLKTIRADGAMSALPVLMVTAEAKKENIIAAAQAGASGYVVKPFTAATLEEKLNKIFEKLGM, the “ddG of mutation (higher = less stable)” value was determined as 0.2 kcal/mol, the denaturant m value was found to be 1.6 kcal/mol/M, the “denaturant midpoint” value stood at 3.41 M and the unfolding free energy is 5.4 kcal/mol.

MADKELKFLVVDDNSTMRRIVRNLLKELGFNNVEEAEDGVDALNKLQAGGYGFVISDWNMPNMDGLELLKTIRADGAMSALPVLMVTAEAKKENIIAAAQAGASGYVVKPFAAATLEEKLNKIFEKLGM: the “ddG of mutation (higher = less stable)” value was -1.4 kcal/mol, the denaturant m value is 1.68 kcal/mol/M, the “denaturant midpoint” value came out at 4.12 M and the unfolding free energy came out at 7 kcal/mol.

With MADKELKFLVVDDNSTMRRIVRNLLKELGFNNVEEAEDGVDALNKLQAGGYGFVISDWNMPNMDGLELLKTIRADGAMSALPVLMVTAEAKKENIIAAAQAGASGYVVKPFTAATLEEKLNKIFEKLGM, the “ddG of mutation (higher = less stable)” value is -2.9 kcal/mol, the denaturant m value was found to be 1.8 kcal/mol/M, the “denaturant midpoint” value amounted to 4.72 M and the unfolding free energy was 8.5 kcal/mol.

As to MADKELKFLVVDDNSTMRRIVRNLLKELGFNNVEEAEDGVDALNKLQAGGYGFVISDWNMPNMDGLELLKTIRADGAMSALPVLMVTAEAKKENIIAAAQAGASGYVVKPFGAATLEEKLNKIFEKLGM, the “ddG of mutation (higher = less stable)” value was -1.9 kcal/mol, the denaturant m value worked out at 1.68 kcal/mol/M, the “denaturant midpoint” value came out at 4.46 M and the unfolding free energy was found to be 7.5 kcal/mol.

As to MADKELKFLVVDDFSTMRRIVRNLLKELGFNNVEEAEDGVDALNKLQAGGYGFVISDWNMPNMDGLELLKTIRADGAMSALPVLMVTGEAKKENIIAAAQAGASGYVVKPFTAATLEEKLNKIFEKLGM, the “ddG of mutation (higher = less stable)” value is -0.1 kcal/mol, the denaturant m value was 1.64 kcal/mol/M, the “denaturant midpoint” value was 3.48 M and the unfolding free energy was found to be 5.7 kcal/mol.

For the variant MADKELKFLVVDDNSTMRRIVRNLLKELGFNNVEEAEAGVDALNKLQAGGYGFVISDWNMPNMDGLELLKTIRADGAMSALPVLMVTAEAKKENIIAAAQAGASGYVVKPFTAATLEEKLNKIFEKLGM, the “ddG of mutation (higher = less stable)” value was -1 kcal/mol, the denaturant m value turned out to be 1.87 kcal/mol/M, the “denaturant midpoint” value worked out at 3.58 M and the unfolding free energy turned out to be 6.6 kcal/mol.
